Laboratory results from patent US20180171001A1.

Tests used:
Assay in all cases: cell-based or functional assay
[1] = target: Env of HIV-1 strain 251-18 (HIV-1)
[2] = target: Env of HIV-1 strain X1254_c3 (HIV-1)
[3] = target: Env of HIV-1 strain Du172.17 (HIV-1)
[4] = target: Env of MuLV
[5] = target: Env of HIV-1 strain ZM53M.PB12 (HIV-1)
[6] = target: Env of HIV-1 strain 3415.v1.c1 (HIV-1)
[7] = target: Env of HIV-1 strain H086.8 (HIV-1)
[8] = target: Env of HIV-1 strain 231965.c1 (HIV-1)
[9] = target: Env of HIV-1 strain 250-4 (HIV-1)
[10] = target: Env of HIV-1 strain R1166.c1 (HIV-1)
[11] = target: Env of HIV-1 strain REJO4541.67 (HIV-1)
[12] = target: Env of HIV-1 strain ZM109F.PB4 (HIV-1)
[13] = target: Env of HIV-1 strain PVO.4 (HIV-1)
[14] = target: Env of HIV-1 strain YU2.DG (HIV-1)
[15] = target: Env of HIV-1 strain 3016.v5.c45 (HIV-1)
[16] = target: Env of HIV-1 strain 3365.v2.c20 (HIV-1)

B1: γ15κ11 (antibody, V domains shown)
VH: QIHLVQSGTEVKKPGSSVTVSCKAYGVNTFGLYAVNWVRQAPGQSLEYIGQIWRWKSSASHHFRGRVIISAVDLTGSSPPISSLEIKNLTSDDTAVYFCTTASTYDKWSGLHHDGVMAFSSWGQGTLISVSA
VL: DIQMTQSPSTLSASVGGTVRISCRASQSITGGWLAWYHQRPGKAPRLLIYRGSRLLGGVPSRFSGSAAGTDFTLTIANLQAEDFGTFYCQQYDTYPGTFGQGTKVEVKR
- neutralization IC50 [1]: > 15 µg/mL
- neutralization IC50 [2]: 13.7 µg/mL
- neutralization IC50 [3]: > 15 µg/mL
- neutralization IC50 [4]: > 30 µg/mL
- neutralization IC50 [5]: > 15 µg/mL
- neutralization IC50 [6]: > 15 µg/mL
- neutralization IC50 [7]: > 15 µg/mL
- neutralization IC50 [8]: 5.1 µg/mL
- neutralization IC50 [9]: > 15 µg/mL
- neutralization IC50 [10]: 9.81 µg/mL
- neutralization IC50 [11]: > 15 µg/mL
- neutralization IC50 [12]: > 15 µg/mL
- neutralization IC50 [13]: 6.7 µg/mL
- neutralization IC50 [14]: 4.12 µg/mL
- neutralization IC50 [15]: 1.32 µg/mL
- neutralization IC50 [16]: > 15 µg/mL

B2: γ23κ11 (antibody, V domains shown)
VH: QIHLVQSGTEVKKPGSSVTVSCKAYGVNTFGLYAVNWVRQAPGQSLEYIGQIWRWKSSASHHFRGRVIISAVDLTGSSPPISSLEIKNLTSDDTAVYFCTTTSTSDYWSGLHHDGVMAFSSWGQGTLISVSA
VL: DIQMTQSPSTLSASVGGTVRISCRASQSITGGWLAWYHQRPGKAPRLLIYRGSRLLGGVPSRFSGSAAGTDFTLTIANLQAEDFGTFYCQQYDTYPGTFGQGTKVEVKR
- neutralization IC50 [1]: 2.49 µg/mL
- neutralization IC50 [2]: 1.7 µg/mL
- neutralization IC50 [3]: 11.3 µg/mL
- neutralization IC50 [4]: > 30 µg/mL
- neutralization IC50 [5]: > 15 µg/mL
- neutralization IC50 [6]: > 15 µg/mL
- neutralization IC50 [7]: > 15 µg/mL
- neutralization IC50 [8]: 0.543 µg/mL
- neutralization IC50 [9]: > 15 µg/mL
- neutralization IC50 [10]: 1.61 µg/mL
- neutralization IC50 [11]: 0.14 µg/mL
- neutralization IC50 [12]: > 15 µg/mL
- neutralization IC50 [13]: 0.103 µg/mL
- neutralization IC50 [14]: 0.34 µg/mL
- neutralization IC50 [15]: 0.159 µg/mL
- neutralization IC50 [16]: > 15 µg/mL

B3: γ22κ11 (antibody, V domains shown)
VH: QIHLVQSGTEVKKPGSSVTVSCKAYGVNTFGLYAVNWVRQAPGQSLEYIGQIWRWKSSASHHFRGRVLISAVDLTGPSPPISSLEIKNLTSDDTAVYFCTTTSTYDKWSGLHHDGVMAFSSWGQGTLISVSA
VL: DIQMTQSPSTLSASVGGTVRISCRASQSITGGWLAWYHQRPGKAPRLLIYRGSRLLGGVPSRFSGSAAGTDFTLTIANLQAEDFGTFYCQQYDTYPGTFGQGTKVEVKR
- neutralization IC50 [1]: > 15 µg/mL
- neutralization IC50 [2]: > 15 µg/mL
- neutralization IC50 [3]: > 15 µg/mL
- neutralization IC50 [4]: > 30 µg/mL
- neutralization IC50 [5]: > 15 µg/mL
- neutralization IC50 [6]: > 15 µg/mL
- neutralization IC50 [7]: > 15 µg/mL
- neutralization IC50 [8]: > 15 µg/mL
- neutralization IC50 [9]: > 15 µg/mL
- neutralization IC50 [10]: > 15 µg/mL
- neutralization IC50 [11]: > 15 µg/mL
- neutralization IC50 [12]: > 15 µg/mL
- neutralization IC50 [13]: > 15 µg/mL
- neutralization IC50 [14]: > 15 µg/mL
- neutralization IC50 [15]: > 15 µg/mL
- neutralization IC50 [16]: > 15 µg/mL

B4: γ20κ11 (antibody, V domains shown)
VH: QIHLVQSGTEVKKPGSSVAVSCKAYGVNTFGLYAVNWVRQAPGQSLEYIGQIWRWKSSASHDFRGRVIISAVDLTGSSPPISSLEIKNLTSDDTAVYFCTATSTPDYWSGLHHDGVMAFSSWGQGTLISVSA
VL: DIQMTQSPSTLSASVGGTVRISCRASQSITGGWLAWYHQRPGKAPRLLIYRGSRLLGGVPSRFSGSAAGTDFTLTIANLQAEDFGTFYCQQYDTYPGTFGQGTKVEVKR
- neutralization IC50 [1]: > 15 µg/mL
- neutralization IC50 [2]: 7.5 µg/mL
- neutralization IC50 [3]: > 15 µg/mL
- neutralization IC50 [4]: > 30 µg/mL
- neutralization IC50 [5]: > 15 µg/mL
- neutralization IC50 [6]: > 15 µg/mL
- neutralization IC50 [7]: > 15 µg/mL
- neutralization IC50 [8]: > 15 µg/mL
- neutralization IC50 [9]: > 15 µg/mL
- neutralization IC50 [10]: 20.2 µg/mL
- neutralization IC50 [11]: > 15 µg/mL
- neutralization IC50 [12]: > 15 µg/mL
- neutralization IC50 [13]: > 15 µg/mL
- neutralization IC50 [14]: > 15 µg/mL
- neutralization IC50 [15]: > 15 µg/mL
- neutralization IC50 [16]: > 15 µg/mL
